Source: PMC3805524, “GmSAL1 Hydrolyzes Inositol-1,4,5-Trisphosphate and Regulates Stomatal Closure in Detached Leaves and Ion Compartmentalization in Plant Cells” (PLoS ONE, 2013)

Substrate: O=P(O)(O)O[C@@H]1[C@H](O)[C@H](O)[C@@H](OP(=O)(O)O)[C@H](OP(=O)(O)O)[C@H]1O
Assay: purified protein
Assay type: biochemical, Glycine max
Conditions: 25 mM Tris-HCl pH 7.5, 1 mM MgCl2, 37°C, 30 min, IP3 0.0125-0.2 mM

B1: GmSAL1 (Glycine max) (protein)
chain: MPYEKEFAAAKKAATLAARLCKKVQKALLQSDVHSKSDKSPVTVADYGSQALVSFILERELPSEPFSLVAEEDSGDLRKESGQDTLKRITELVNDTLASEGSNSFSTLTTDDVLAAIDGGKSEGGSVGRHWVLDPIDGTKGFVRGDQYAIALALLDEGKVVLGVLACPNLPLASIGSNQQLSSSNEVGCLFFAKVGDGTYMQALGGSTQTRVHVCDIDNPEEASFFESFEAAHSSHDLSSSIAEKLGVKAPPVRIDSQAKYGALSRGDGAIYLRFPHKGYREKIWDHAAGSIVVTEAGGIAMDAAGNPLDFSKGKFLDVVSGIIVTNQKLKASLLRAVKEALNEKVSSL
notes: cloning primers encode N-terminal MPYEKEF and C-terminal KVSSL
In the case of B1, the Km is reported as 10.8 ± 0.1 µM and the kcat is reported as 1.13 ± 0.217 s⁻¹.
